From patent US20240148892A1 (DUALITY BIOLOGICS SUZHOU, published 2024)

T1: human full-length B7H3 expressed on MCF-7 cells (human, UniProt Q5ZPR3 29-534)
T1 construct: also called human B7H3-expressing cells MCF-7
T1 sequence: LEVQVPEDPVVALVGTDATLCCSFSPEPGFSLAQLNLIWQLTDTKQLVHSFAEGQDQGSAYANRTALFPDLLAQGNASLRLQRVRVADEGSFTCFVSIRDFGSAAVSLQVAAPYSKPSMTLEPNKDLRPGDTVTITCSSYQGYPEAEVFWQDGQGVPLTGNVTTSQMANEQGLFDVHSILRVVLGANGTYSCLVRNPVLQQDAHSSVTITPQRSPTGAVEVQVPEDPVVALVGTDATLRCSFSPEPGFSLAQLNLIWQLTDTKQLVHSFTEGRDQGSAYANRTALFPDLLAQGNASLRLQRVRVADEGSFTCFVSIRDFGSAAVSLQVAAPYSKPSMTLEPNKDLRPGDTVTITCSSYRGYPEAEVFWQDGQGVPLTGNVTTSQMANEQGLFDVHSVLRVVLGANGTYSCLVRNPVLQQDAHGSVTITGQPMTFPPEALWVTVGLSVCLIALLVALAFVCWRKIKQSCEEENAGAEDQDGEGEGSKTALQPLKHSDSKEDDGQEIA

T2: Human B7-H3/CD276 protein, His tag (2IgB7H3) (human, UniProt Q5ZPR3-2 29-245)
T2 construct: Bought protein; 25.2 kDa used in the SPR calculation; also called human 2IgB7H3; ACRO B73-H52E2; not shown: His tag
T2 sequence (looked up): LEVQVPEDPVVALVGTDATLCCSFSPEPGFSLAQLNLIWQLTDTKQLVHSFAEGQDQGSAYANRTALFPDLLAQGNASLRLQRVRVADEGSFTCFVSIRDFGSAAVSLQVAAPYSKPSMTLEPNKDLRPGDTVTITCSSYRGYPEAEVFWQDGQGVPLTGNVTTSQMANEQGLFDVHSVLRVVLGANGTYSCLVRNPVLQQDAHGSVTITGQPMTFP

B1: W301088-1.145.16-z3-p1-uIgG1KV320 (antibody, V domains shown)
VH: QVQLQESGPGLVKPSQTLSLTCTVTDYSITGDYAWNWIRQHPGKGLEWIGYISYSGSTSYNPSLQSRVTISRDTSKNQFSLKLSSVTAADTAVYFCARSLGRRWYFVVWGQGTTVTVSS
VL: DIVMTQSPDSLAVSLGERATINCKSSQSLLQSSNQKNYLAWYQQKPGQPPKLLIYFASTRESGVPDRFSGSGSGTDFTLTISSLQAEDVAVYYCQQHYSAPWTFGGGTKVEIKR
notes: Humanized, PTM-removed (VL N027dQ) human IgG1 LALA kappa antibody; also called WBP301088; W301088-z3-p1
B2: W301088-1.145.16-xIgG1KV320 (antibody, V domains shown)
VH: DVQLQESGPGLVKPSQSLSLTCTVTDYSITGDYAWNWIRQFPGNKLEWMGYISYSGSTSYNPSLQSRISITRDTSKNQFFLQLNSVTSEDTATYFCARSLGRRWYFVVWGAGTTVTVSA
VL: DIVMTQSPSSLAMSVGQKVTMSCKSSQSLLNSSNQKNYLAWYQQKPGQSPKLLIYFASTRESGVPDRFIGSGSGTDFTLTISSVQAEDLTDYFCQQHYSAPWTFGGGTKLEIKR
B3: Enoblituzumab (MacroGenics) (antibody, V domains shown)
VH: EVQLVESGGGLVQPGGSLRLSCAASGFTFSSFGMHWVRQAPGKGLEWVAYISSDSSAIYYADTVKGRFTISRDNAKNSLYLQMNSLRDEDTAVYYCGRGRENIYYGSRLDYWGQGTTVTVSS
VL: DIQLTQSPSFLSASVGDRVTITCKASQNVDTNVAWYQQKPGKAPKALIYSASYRYSGVPSRFSGSGSGTDFTLTISSLQPEDFATYYCQQYNNYPFTFGQGTKLEIKR

These binders were tested against T1, human full-length B7H3 expressed on … (assay: flow cytometry (FACS) on MCF-7 cells expressing human full-length B7H3).
Procedure: FACS was used to detect the binding of antibodies to human B7H3. This method allows quantitative analysis and identification of specific molecules expressed on the surface of living cells. Unlabeled cells were used as a control to set a threshold before the assay, and the percentage change for each group that exceeded the fluorescence intensity threshold was analyzed. MCF-7 cells expressing human full-length B7H3 (1×10⁵ cells/well) were incubated with various concentrations of antibodies (3.16-fold serially diluted with 1×DPBS/1% BSA from 50 nM to 0.0005 nM) in a volume of 100 μL/well in a refrigerator set to 4° C. for 1 h. Anti-human B7H3 reference antibody enoblituzumab (MacroGeneics) was used as a positive control. Human IgG1 isotype antibody was used as a negative control. After washing the cells with 1×DPBS/1% BSA, Alexa 647 goat anti-human antibody (diluted in a 1:500 ratio in 1×DPBS/1% BSA) was added. The cells were incubated in a refrigerator set to 4° C. for 0.5 h in the dark. The mean fluorescence intensity (MFI) of the cells was measured by a flow cytometry and analyzed by FlowJo. EC₅₀ values were calculated by four-parameter non-linear regression analysis using GraphPad Prism 7 software.

B1 and B2 are within 1.5-fold of each other in EC50: 1.08 nM for the first, 1.16 nM for the second.

B3 showed an EC50 of 2.49 nM.

These binders were tested against T2, Human B7-H3/CD276 protein, His tag … (assay: SPR (Biacore 8K), antibody captured on anti-human Fc IgG, human 2IgB7H3 as analyte, 1:1 model).
Procedure: The affinity of antibodies for human 2IgB7H3 was determined using surface plasmon resonance (SPR). The affinity of antibodies for human 2IgB7H3 was determined by Biacore 8K. An activator was prepared by mixing 400 mM EDC and 100 mM NHS (GE) immediately prior to injection into the channel. The CMS sensor chip was activated for 420 seconds with the activator. Goat anti-human Fc IgG (30 μg/mL in 10 mM NaAc, pH 4.5) was then injected into the channel at a flow rate of 10 μL/min for 420 seconds. The chip was deactivated by 1 M ethanolamine hydrochloric acid. The antibodies diluted in running buffer (1×HBS-EP+) were injected into the channel at a flow rate of 10 μL/min for 30 seconds. […] Glycine (10 mM, pH 1.5) was injected as regeneration buffer after the dissociation phase.
The sensorgrams for the reference channel and the buffer channel were subtracted from the test sensorgrams. The experimental data were fitted with a 1:1 binding model. The molecular weight of the human 2IgB7H3 used in the calculation was 25.2 kDa.
The experimental data were fitted by a 1:1 binding model bundled with the Biacore 8K evaluation software.

B1 and B2 are within 1.5-fold of each other in Kd: 46.4 nM for the first, 57.7 nM for the second.

B3 gave a Kd of 261 nM.

B1 and B2 are within 1.5-fold of each other in koff: 0.0141 s⁻¹ for the first, 0.0136 s⁻¹ for the second.

With B3 the koff was 0.0168 s⁻¹.

B1 and B2 are within 1.5-fold of each other in kon: 303000 M⁻¹ s⁻¹ for the first, 235000 M⁻¹ s⁻¹ for the second.

Binder B3 has a kon of 64400 M⁻¹ s⁻¹.

What follows are binders tested against T3, cynomolgus monkey B7H3 on transfected FlpinCHO cells (cynomolgus monkey) (assay: flow cytometry (FACS) on FlpinCHO cells transfected with cynomolgus monkey B7H3).
T3 construct: whole, on cells; also called W3XX088-FlpinCHO.cPro1.pool
Procedure: FACS was used to detect the binding of antibodies to cynomolgus monkey B7H3. FlpinCHO cells were transfected with cynomolgus monkey B7H3 (W3XX088-FlpinCHO.cProl.pool) (1×10⁵ cells/well), and the transfected cells were incubated with various concentrations of antibodies (3.16-fold serially diluted with 1×DPBS/1% BSA from 50 nM to 0.0005 nM) in a volume of 100 μL/well in a refrigerator set to 4 ° C. for 1 h. Anti-human B7H3 reference antibody enoblituzumab (MacroGeneics) was used as a positive control. Human IgG1 isotype antibody was used as a negative control. After washing the cells with 1×DPBS/1% BSA, Alexa 647 goat anti-human antibody (diluted in a 1:500 ratio in 1×DPBS/1% BSA) was added. The cells were incubated in a refrigerator set to 4° C. for 0.5 h in the dark. The mean fluorescence intensity (MFI) of the cells was measured by a flow cytometry and analyzed by FlowJo. EC₅₀ values were calculated by four-parameter non-linear regression analysis using GraphPad Prism 7 software.

B1 and B2 are within 1.5-fold of each other in EC50: 4.68 nM for the first, 5.25 nM for the second.

B3 showed an EC50 of 9.58 nM.

What follows are binders tested against T1, human full-length B7H3 expressed on … (assay: cell-based or functional assay).

B1 and B2 are within 1.5-fold of each other in “Antibody internalization EC50 (nM), MCF-7 cells, high-content imaging” value: 0.44 nM for the first, 0.51 nM for the second.

For B3, the “Antibody internalization EC50 (nM), MCF-7 cells, high-content imaging” value was 1.95 nM.
